T1: cyno PRLR (Biacore antigen) (cyno, UniProt A0A2K5WXK1 25-234)
T1 construct: also called cyPRLR
T1 sequence: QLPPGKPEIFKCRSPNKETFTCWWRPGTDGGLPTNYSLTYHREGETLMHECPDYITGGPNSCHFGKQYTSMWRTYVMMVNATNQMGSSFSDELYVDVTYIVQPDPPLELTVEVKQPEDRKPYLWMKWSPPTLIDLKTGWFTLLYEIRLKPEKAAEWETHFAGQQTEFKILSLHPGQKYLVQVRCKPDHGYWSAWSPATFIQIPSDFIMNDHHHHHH

T2: human PRLR (Biacore antigen) (human, UniProt P16471 25-234, limits assumed)
T2 construct: The construct injected over captured antibody is not described (a soluble form is likely); also called huPRLR
T2 sequence: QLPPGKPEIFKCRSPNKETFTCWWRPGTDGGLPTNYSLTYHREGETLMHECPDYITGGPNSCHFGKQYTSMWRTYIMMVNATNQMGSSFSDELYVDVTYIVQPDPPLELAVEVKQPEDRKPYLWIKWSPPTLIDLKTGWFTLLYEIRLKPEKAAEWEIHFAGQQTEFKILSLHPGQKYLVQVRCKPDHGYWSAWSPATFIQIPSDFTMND

T3: murine PRLR (Biacore antigen) (murine, UniProt Q08501 20-229, limits assumed)
T3 construct: also called muPRLR
T3 sequence (looked up): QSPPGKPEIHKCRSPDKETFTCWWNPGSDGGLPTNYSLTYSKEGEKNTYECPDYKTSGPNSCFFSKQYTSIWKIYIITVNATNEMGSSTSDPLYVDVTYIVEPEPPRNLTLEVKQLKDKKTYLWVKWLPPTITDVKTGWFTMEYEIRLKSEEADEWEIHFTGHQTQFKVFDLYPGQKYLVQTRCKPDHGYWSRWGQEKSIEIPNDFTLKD

T4: human PRLR on cells (human, UniProt P16471 25-622)
T4 sequence: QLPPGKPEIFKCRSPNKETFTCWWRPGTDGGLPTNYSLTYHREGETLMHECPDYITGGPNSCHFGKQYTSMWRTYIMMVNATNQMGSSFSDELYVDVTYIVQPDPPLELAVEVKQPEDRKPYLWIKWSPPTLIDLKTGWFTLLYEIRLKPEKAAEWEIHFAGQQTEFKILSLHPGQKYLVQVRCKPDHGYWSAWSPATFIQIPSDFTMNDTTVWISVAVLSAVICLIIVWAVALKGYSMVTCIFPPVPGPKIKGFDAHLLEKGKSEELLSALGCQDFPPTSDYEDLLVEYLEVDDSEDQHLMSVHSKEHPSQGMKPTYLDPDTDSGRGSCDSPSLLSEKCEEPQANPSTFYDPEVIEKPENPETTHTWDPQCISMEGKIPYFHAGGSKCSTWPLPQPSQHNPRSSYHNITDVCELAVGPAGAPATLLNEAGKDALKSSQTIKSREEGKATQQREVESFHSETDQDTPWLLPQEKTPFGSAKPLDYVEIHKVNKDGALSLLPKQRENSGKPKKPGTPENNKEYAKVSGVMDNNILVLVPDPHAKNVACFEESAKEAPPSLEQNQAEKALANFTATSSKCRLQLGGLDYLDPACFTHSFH

T5: mouse PRLR on Baf3-mPRLR cells (mouse, UniProt Q08501 20-608)
T5 sequence (looked up): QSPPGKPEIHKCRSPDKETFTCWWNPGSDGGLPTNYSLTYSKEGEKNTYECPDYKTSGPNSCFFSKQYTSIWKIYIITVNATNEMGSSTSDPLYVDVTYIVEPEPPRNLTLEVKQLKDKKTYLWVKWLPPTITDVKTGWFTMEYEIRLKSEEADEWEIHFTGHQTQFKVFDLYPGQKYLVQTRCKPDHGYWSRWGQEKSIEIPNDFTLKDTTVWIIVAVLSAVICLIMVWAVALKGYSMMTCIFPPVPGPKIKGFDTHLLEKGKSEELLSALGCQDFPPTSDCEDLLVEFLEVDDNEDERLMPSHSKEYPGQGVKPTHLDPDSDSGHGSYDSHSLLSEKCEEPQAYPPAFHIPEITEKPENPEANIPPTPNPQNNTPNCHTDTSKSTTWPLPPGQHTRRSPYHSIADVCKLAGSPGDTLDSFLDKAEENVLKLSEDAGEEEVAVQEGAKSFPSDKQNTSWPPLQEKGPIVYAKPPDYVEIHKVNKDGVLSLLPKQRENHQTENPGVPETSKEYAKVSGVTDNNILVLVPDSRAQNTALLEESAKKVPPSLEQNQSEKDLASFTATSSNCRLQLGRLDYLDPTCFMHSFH

T6: human PRLR ECD-Fc fusion protein (human, UniProt P16471 25-233)
T6 construct: not shown: Fc region (captured by goat anti-human Fc)
T6 sequence: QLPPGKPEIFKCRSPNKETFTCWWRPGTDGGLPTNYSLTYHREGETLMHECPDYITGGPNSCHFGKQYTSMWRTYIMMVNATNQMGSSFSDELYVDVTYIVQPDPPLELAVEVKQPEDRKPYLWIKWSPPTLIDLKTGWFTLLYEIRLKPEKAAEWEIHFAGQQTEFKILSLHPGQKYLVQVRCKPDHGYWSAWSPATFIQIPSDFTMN

T7: cyno PRLR ECD-his6 protein (cyno)
T7 chain: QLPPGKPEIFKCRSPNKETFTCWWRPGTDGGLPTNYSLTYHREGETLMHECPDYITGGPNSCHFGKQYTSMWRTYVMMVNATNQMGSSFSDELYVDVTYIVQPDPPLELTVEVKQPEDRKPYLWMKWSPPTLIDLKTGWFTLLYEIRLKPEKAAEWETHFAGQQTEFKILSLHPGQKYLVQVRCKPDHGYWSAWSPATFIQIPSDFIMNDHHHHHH

T8: mouse PRLR ECD-Fc fusion protein (mouse, UniProt Q08501 20-229)
T8 construct: extracellular domain; not shown: Fc region (captured by goat anti-human Fc)
T8 sequence (looked up): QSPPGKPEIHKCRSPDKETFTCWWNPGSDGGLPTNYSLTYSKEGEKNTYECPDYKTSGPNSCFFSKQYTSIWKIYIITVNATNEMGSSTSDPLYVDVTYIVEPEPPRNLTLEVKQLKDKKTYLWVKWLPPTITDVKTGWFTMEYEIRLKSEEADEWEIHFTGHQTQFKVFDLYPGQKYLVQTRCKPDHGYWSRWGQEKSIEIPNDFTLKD

B1: Ab35 (antibody, human IgG1, kappa)
heavy: not shown
light: DIVMTQTPLSLSVTPGQPASISCRSSQSLVHSNGNTYLHWYLQKPGQSPQLLIYKVSNRFSGVPDRFSGSGSGTDFTLKISRVEAEDVGVYYCSQSTHVPFTFGGGTKVEIKRTVAAPSVFIFPPSDEQLKSGTASVVCLLNNFYPREAKVQWKVDNALQSGNSQESVTEQDSKDSTYSLSSTLTLSKADYEKHKVYACEVTHQGLSSPVTKSFNRGEC
notes: humanized from Ab7; G1; also called Ab4 HC.1 and Ab4 LC.1
B2: Ab38 (antibody, human IgG1, kappa)
heavy: not shown
light: DIVMTQTPLSLSVTPGQPASISCRSSQSLVHSNGNTYLHWYLQKPGQSPQLLIYKVSNRFSGVPDRFSGSGSGTDFTLKISRVEAEDVGVYYCSQSTHVPFTFGGGTKVEIKRTVAAPSVFIFPPSDEQLKSGTASVVCLLNNFYPREAKVQWKVDNALQSGNSQESVTEQDSKDSTYSLSSTLTLSKADYEKHKVYACEVTHQGLSSPVTKSFNRGEC
notes: humanized from Ab7; G1; also called Ab4 HC.1a and Ab4 LC.1
B3: Ab37 (antibody, human IgG1, kappa)
heavy: not shown
light: DVVMTQTPLSLSVTPGQPASISCRSSQSLVHSNGNTYLHWYLQKPGQSPQLLIYKVSNRFSGVPDRFSGSGSGTDFTLKISRVEAEDVGVYYCSQSTHVPFTFGGGTKVEIKRTVAAPSVFIFPPSDEQLKSGTASVVCLLNNFYPREAKVQWKVDNALQSGNSQESVTEQDSKDSTYSLSSTLTLSKADYEKHKVYACEVTHQGLSSPVTKSFNRGEC
notes: humanized from Ab7; G1; also called Ab4 HC.1 and Ab4 LC.1b
B4: Ab46 (antibody, human IgG1, kappa, V domains shown)
VH: EVQLVQSGAEVKKPGASVKVSCKASGYTFTDYNIHWVRQAPGQGLEWMGYIYPNNDGTGYNQKFKSRVTMTTDTSTSTAYMELRSLRSDDTAVYYCARGDGNYVGDMDYWGQGTTVTVSS
VL: DIQMTQSPSSLSASVGDRVTITCRASENIYSYLAWYQQKPGKAPKLLVYNAKTLAEGVPSRFSGSGSGTDFTLTISSLQPEDFATYYCQHHYATPFTFGQGTKLEIKR
notes: humanized from Ab8; G1; also called Ab3 HC.1 and Ab3 LC.1b
B5: Ab45 (antibody, human IgG1, kappa, V domains shown)
VH: EVQLVQSGAEVKKPGASVKVSCKASGYTFTDYNIHWVRQAPGQGLEWMGYIYPNNDGTGYNQKFKSRVTMTTDTSTSTAYMELRSLRSDDTAVYYCARGDGNYVGDMDYWGQGTTVTVSS
VL: DIQMTQSPSSLSASVGDRVTITCRASENIYSYLAWYQQKPGKPPKLLVYNAKTLAEGVPSRFSGSGSGTDFTLTISSLQPEDFATYYCQHHYATPFTFGQGTKLEIKR
notes: humanized from Ab8; G1; also called Ab3 HC.1 and Ab3 LC.1a
B6: Ab20 (antibody, human IgG1, kappa, V domains shown)
VH: EVQLVQSGAEVKKPGSSVKVSCKASGYTFTTYWMHWVRQAPGQGLEWIGEIDPSDSYSNYNQKFKDRATLTVDKSTSTAYMELSSLRSEDTAVYYCARNGGLGPAWFSYWGQGTLVTVSS
VL: EIVMTQSPATLSVSPGERATLSCKASQYVGTAVAWYQQKPGQAPRLLIYSASNRYTGIPARFSGSGSGTEFTLTISSLQSEDFAVYYCQQYSSYPWTFGGGTKVEIKR
notes: humanized from Ab6; G1; also called Ab1 HC.1a and Ab1 LC.2

How the values were obtained:
[1] = target: T1, cyno PRLR (Biacore antigen); experiment: SPR Biacore
In short: (§1)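 Association rate, dissociation rate and dissociation constant were measured by surface plasmon resonance on a Biacore instrument. PRLR antigen was tested at 600 nM, 66.67 nM and 7.41 nM, a 3-point, 9-fold dilution series. Constants came from a 1:1 binding model fit (local Rmax, mass-transport term included) in Biacore T200 Evaluation Software.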

[2] = target: T2, human PRLR (Biacore antigen); experiment: SPR Biacore
In short: as §1

[3] = target: T3, murine PRLR (Biacore antigen); experiment: SPR Biacore
In short: as §1

[4] = target: cyno PRLR on Baf3-cyPRLR cells (cyno); experiment: cell-based or functional assay
human PRLR on cells = target: T4, human PRLR on cells; experiment: cell-based or functional assay
[5] = target: T5, mouse PRLR on Baf3-mPRLR cells; experiment: cell-based or functional assay
[6] = target: T6, human PRLR ECD-Fc fusion protein; experiment: ELISA on ECD
Experimental: (§2) Plates were blocked for 1 hour with Superblock (Pierce) and washed (3×) with wash buffer (lx PBS (pH 7.4), 0.05% Tween 20). ECD proteins were bound to the appropriate antibody (1 hour) in binding buffer (wash buffer plus 10% Superblock), washed (3×, wash buffer), and then incubated with serial dilutions of antibodies (1 hour) in binding buffer. After washing (3×, wash buffer), secondary antibodies conjugated to HRP were bound (1 hour) in binding buffer, washed (3×, wash buffer), and incubated with TMB substrate (Pierce) to develop signal for 3-5 minutes, stopped with 2N H₂SO₄ and scanned at […]. Curves were fit with GraphPad 5 (Prizm) and EC50's were determined with curve fitting function of GraphPad 5.

[7] = target: T7, cyno PRLR ECD-his6 protein; experiment: ELISA on ECD
Experimental: as §2

[8] = target: T8, mouse PRLR ECD-Fc fusion protein; experiment: ELISA on ECD
Experimental: as §2

Binder	Kd [1] [nM]	koff [1] [s⁻¹]	kon [1] [M⁻¹ s⁻¹]	Kd [2] [nM]	koff [2] [s⁻¹]	kon [2] [M⁻¹ s⁻¹]	Kd [3] [nM]	koff [3] [s⁻¹]	kon [3] [M⁻¹ s⁻¹]	Baf3-cyPRLR proliferation IC50 [4] [µg/mL]	Baf3-hPRLR proliferation IC50 (human PRLR on cells) [µg/mL]	Baf3-mPRLR proliferation IC50 [5] [µg/mL]	EC50 [6] [nM]	EC50 [7] [nM]	EC50 [8] [nM]
B1	13.5	0.00142	105000	13.3	0.0016	120000	1580	0.0785	49800	0.65	0.38	> 30	2.5	0.32	–
B2	6.04	0.000756	125000	6.22	0.000879	141000	994	0.0527	53000	0.25	0.42	> 30	0.346	0.264	–
B3	12.3	0.00132	107000	12.3	0.00146	119000	1670	0.0687	41100	0.44	0.43	> 30	0.184	0.186	–
B4	–	–	–	–	–	–	–	–	–	1.72	0.3	> 30	0.0626	0.0814	0.568
B5	–	–	–	–	–	–	–	–	–	2.24	0.31	> 30	0.0684	0.201	0.978
B6	–	–	–	2	0.00208	1.04e+06	620	–	–	0.5	0.2	> 30	0.0836	0.0711	–
